Measurements published in the supplement of paper PMC10567573.

B1: TCEB3B (parent)
chain: STTALGDKQRKANESKGTRESWDS

Variants of: B1
Test: protein stability index of a GFP-peptide fusion (GPS, HEK-293T) (PSI 1-6); higher = more stable
Conditions: c terminus: a fixed tail appended
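Further: lentivirally expressed fusions sorted by FACS into six bins by GFP to DsRed ratio, PSI derived from sequencing read proportions per bin multiplied by bin number.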

Row | Variant | protein stability index
1 | STTALGDKQRKANESKGTDESWDS [R19D] | 5.16
2 | STTALGDKQRKANESKGTNESWDS [R19N] | 4.58
3 | STTALGDKQRKANESKGTHESWDS [R19H] | 4.4
4 | STTALGDKQRKANESKGTIESWDS [R19I] | 4.58
5 | STTALGDKQRKANESKGTAESWDS [R19A] | 4.95
6 | STTALGDKQRKANESKGTCESWDS [R19C] | 4.67
7 | STTALGDKQRKANESKGTLESWDS [R19L] | 4.5
8 | STTALGDKQRKANESKGTMESWDS [R19M] | 4.8
9 | STTALGDKQRKANESKGTGESWDS [R19G] | 4.68
10 | STTALGDKQRKANESKGTFESWDS [R19F] | 3.86
11 | STTALGDKQRKANESKGTEESWDS [R19E] | 5.27
12 | STTALGDKQRKANESKGTKESWDS [R19K] | 4.21
13 | STTALGDKQRKANESNGTRESWDS [K16N] | 3.97
14 | STTALGDKQRKANESGGTRESWDS [K16G] | 4.52
15 | STTALGDKQRKANESCGTRESWDS [K16C] | 2.97
16 | STTALGDKQRKANESQGTRESWDS [K16Q] | 4.24
17 | STTALGDKQRKANESMGTRESWDS [K16M] | 3.44
18 | STTALGDKQRKANESVGTRESWDS [K16V] | 4.53
19 | STTALGDKQRKANESWGTRESWDS [K16W] | 3.13
20 | STTALGDKQRKANESYGTRESWDS [K16Y] | 3.6
21 | STTALGDKQRKANESFGTRESWDS [K16F] | 3.8
22 | STTALGDKQRKANESLGTRESWDS [K16L] | 4.3
23 | STTALGDKQRKANESAGTRESWDS [K16A] | 4.45
24 | STTALGDKQRKANESRGTRESWDS [K16R] | 4.04

Row | Variant | protein stability index
25 | STTALGDKQRKANESSGTRESWDS [K16S] | 4.42
26 | STTALGDKQRKANESIGTRESWDS [K16I] | 3.95
27 | STTALGDKQRKANESHGTRESWDS [K16H] | 4.14
28 | STTALGDKQRKANESTGTRESWDS [K16T] | 4.24
29 | STTALGDKQRKANESPGTRESWDS [K16P] | 4.29
30 | STTALGDKQRKANESEGTRESWDS [K16E] | 5
31 | STTALGDKQRKANESDGTRESWDS [K16D] | 4.96
32 | STTALGDKQRKANENKGTRESWDS [S15N] | 4.24
33 | STTALGDKQRKANEVKGTRESWDS [S15V] | 3.38
34 | STTALGDKQRKANEAKGTRESWDS [S15A] | 4.69
35 | STTALGDKQRKANEPKGTRESWDS [S15P] | 4.34
36 | STTALGDKQRKANEKKGTRESWDS [S15K] | 4
37 | STTALGDKQRKANEYKGTRESWDS [S15Y] | 3.64
38 | STTALGDKQRKANEMKGTRESWDS [S15M] | 3.98
39 | STTALGDKQRKANETKGTRESWDS [S15T] | 3.38
40 | STTALGDKQRKANEDKGTRESWDS [S15D] | 4.93
41 | STTALGDKQRKANEEKGTRESWDS [S15E] | 4.97
42 | STTALGDKQRKANEGKGTRESWDS [S15G] | 4.2
43 | STTALGDKQRKANELKGTRESWDS [S15L] | 3.52
44 | STTALGDKQRKANEQKGTRESWDS [S15Q] | 4.03
45 | STTALGDKQRKANEWKGTRESWDS [S15W] | 3.72
46 | STTALGDKQRKANEFKGTRESWDS [S15F] | 3.94
47 | STTALGDKQRKANERKGTRESWDS [S15R] | 3.65
48 | STTALGDKQRKANEHKGTRESWDS [S15H] | 3.93

Row | Variant | protein stability index
49 | STTALGDKQRKANEIKGTRESWDS [S15I] | 3.71
50 | STTALGDKQRKANECKGTRESWDS [S15C] | 3.58
51 | STTALGDKQRKANESKPTRESWDS [G17P] | 4.42
52 | STTALGDKQRKANESKITRESWDS [G17I] | 2.92
53 | STTALGDKQRKANESKCTRESWDS [G17C] | 3.8
54 | STTALGDKQRKANESKDTRESWDS [G17D] | 4.55
55 | STTALGDKQRKANESKRTRESWDS [G17R] | 3.97
56 | STTALGDKQRKANESKHTRESWDS [G17H] | 3.93
57 | STTALGDKQRKANESKATRESWDS [G17A] | 3.78
58 | STTALGDKQRKANESKTTRESWDS [G17T] | 3.98
59 | STTALGDKQRKANESKWTRESWDS [G17W] | 3.51
60 | STTALGDKQRKANESKLTRESWDS [G17L] | 3.21
61 | STTALGDKQRKANESKFTRESWDS [G17F] | 3.97
62 | STTALGDKQRKANESKVTRESWDS [G17V] | 3.55
63 | STTALGDKQRKANESKNTRESWDS [G17N] | 3.74
64 | STTALGDKQRKANESKQTRESWDS [G17Q] | 3.88
65 | STTALGDKQRKANESKKTRESWDS [G17K] | 3.65
66 | STTALGDKQRKANESKSTRESWDS [G17S] | 3.71
67 | STTALGDKQRKANESKYTRESWDS [G17Y] | 3.93
68 | STTALGDKQRKANESKMTRESWDS [G17M] | 3.43
69 | STTALGDKQRKANESKETRESWDS [G17E] | 4.78
70 | STTALGDKQRKANESKGYRESWDS [T18Y] | 3.8
71 | STTALGDKQRKANESKGNRESWDS [T18N] | 4.09
72 | STTALGDKQRKANESKGFRESWDS [T18F] | 3.46

Row | Variant | protein stability index
73 | STTALGDKQRKANESKGARESWDS [T18A] | 4.15
74 | STTALGDKQRKANESKGPRESWDS [T18P] | 3.22
75 | STTALGDKQRKANESKGKRESWDS [T18K] | 3.61
76 | STTALGDKQRKANESKGHRESWDS [T18H] | 3.79
77 | STTALGDKQRKANESKGMRESWDS [T18M] | 3.51
78 | STTALGDKQRKANESKGGRESWDS [T18G] | 3.81
79 | STTALGDKQRKANESKGRRESWDS [T18R] | 3.76
80 | STTALGDKQRKANESKGIRESWDS [T18I] | 3.31
81 | STTALGDKQRKANESKGVRESWDS [T18V] | 4.55
82 | STTALGDKQRKANESKGSRESWDS [T18S] | 4
83 | STTALGDKQRKANESKGLRESWDS [T18L] | 3.14
84 | STTALGDKQRKANESKGERESWDS [T18E] | 4.17
85 | STTALGDKQRKANESKGQRESWDS [T18Q] | 4.03
86 | STTALGDKQRKANESKGWRESWDS [T18W] | 3
87 | STTALGDKQRKANESKGCRESWDS [T18C] | 4.19
88 | STTALGDKQRKANESKGDRESWDS [T18D] | 4.05
89 | STTALGDKQRKANSSKGTRESWDS [E14S] | 3.82
90 | STTALGDKQRKANRSKGTRESWDS [E14R] | 3.61
91 | STTALGDKQRKANVSKGTRESWDS [E14V] | 3.34
92 | STTALGDKQRKANWSKGTRESWDS [E14W] | 2.73
93 | STTALGDKQRKANYSKGTRESWDS [E14Y] | 2.95
94 | STTALGDKQRKANTSKGTRESWDS [E14T] | 3.42
